Measured values: patent US20120077731A1 (Ablynx, published 2012)

Columns and labels:
Cyno plasma sIL-6R [1] = biological target: T1, Cyno plasma sIL-6R (cynomolgus monkey, UniProt A0A2K5WN54 60-396); test: plasma potency ELISA, cyno plasma
T1 construct: also called cynomolgus sIL-6R
T1 sequence: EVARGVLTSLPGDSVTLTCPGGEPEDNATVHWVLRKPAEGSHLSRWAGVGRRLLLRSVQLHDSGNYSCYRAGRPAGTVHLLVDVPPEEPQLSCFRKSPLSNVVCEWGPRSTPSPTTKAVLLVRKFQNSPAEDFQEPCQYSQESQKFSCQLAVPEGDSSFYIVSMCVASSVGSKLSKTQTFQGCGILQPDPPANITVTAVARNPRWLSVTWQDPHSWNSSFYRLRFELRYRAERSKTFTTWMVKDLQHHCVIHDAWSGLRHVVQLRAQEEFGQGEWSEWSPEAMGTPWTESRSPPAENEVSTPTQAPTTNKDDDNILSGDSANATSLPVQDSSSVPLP

[2] = biological target: T2, Human membrane IL-6R on cells (human, UniProt P08887 20-468); test: cell-based or functional assay
T2 sequence (looked up): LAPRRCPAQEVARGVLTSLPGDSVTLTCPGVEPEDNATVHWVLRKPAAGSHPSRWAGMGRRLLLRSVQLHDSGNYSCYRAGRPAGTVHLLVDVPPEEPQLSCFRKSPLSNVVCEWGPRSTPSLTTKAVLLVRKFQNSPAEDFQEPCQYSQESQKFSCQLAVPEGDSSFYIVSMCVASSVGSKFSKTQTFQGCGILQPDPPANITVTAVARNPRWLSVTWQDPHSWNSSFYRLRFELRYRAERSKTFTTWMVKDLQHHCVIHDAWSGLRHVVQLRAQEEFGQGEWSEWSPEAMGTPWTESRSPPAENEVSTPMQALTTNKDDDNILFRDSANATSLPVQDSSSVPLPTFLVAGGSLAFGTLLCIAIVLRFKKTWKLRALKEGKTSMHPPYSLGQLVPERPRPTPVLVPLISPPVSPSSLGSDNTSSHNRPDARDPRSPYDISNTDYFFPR

Human plasma sIL-6R [3] = biological target: T3, Human plasma sIL-6R (human, UniProt P08887 20-355, limits assumed); test: plasma potency ELISA, human plasma; human plasma
T3 construct: also called plasma-derived human IL-6R
T3 sequence (looked up): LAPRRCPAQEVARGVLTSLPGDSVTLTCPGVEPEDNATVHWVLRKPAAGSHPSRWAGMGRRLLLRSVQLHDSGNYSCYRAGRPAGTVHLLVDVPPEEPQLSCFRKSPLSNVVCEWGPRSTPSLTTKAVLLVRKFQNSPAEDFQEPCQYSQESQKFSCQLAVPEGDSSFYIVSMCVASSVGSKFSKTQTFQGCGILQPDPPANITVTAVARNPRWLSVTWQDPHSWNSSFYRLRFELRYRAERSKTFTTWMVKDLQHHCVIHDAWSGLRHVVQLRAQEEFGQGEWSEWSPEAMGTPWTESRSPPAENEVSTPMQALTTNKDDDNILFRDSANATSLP

Human plasma sIL-6R [4] = biological target: T3, Human plasma sIL-6R; test: plasma potency ELISA, human plasma
Human plasma sIL-6R [5] = biological target: T3, Human plasma sIL-6R; test: plasma potency assay, human plasma, 42 nM IL6; blocked ligand IL-6
Protocol: (§1) All 5 affinity matured Nanobodies and the sequence optimized Nanobody were also tested in a plasma potency assay. […] TMB was used as substrate.

Human plasma sIL-6R [6] = biological target: T3, Human plasma sIL-6R; test: plasma potency ELISA, human plasma + human IL-6 50 ng/mL; sIL-6R captured on BN-12, bound IL-6 detected; blocked ligand IL-6
Cyno plasma sIL-6R [7] = biological target: T1, Cyno plasma sIL-6R; test: plasma potency ELISA, cyno plasma + human IL-6 50 ng/mL; sIL-6R captured on BN-12, bound IL-6 detected; blocked ligand IL-6
Human plasma sIL-6R [8] = biological target: T3, Human plasma sIL-6R; test: plasma potency ELISA, human plasma, high IL-6 (EC95)
Human plasma sIL-6R [9] = biological target: T3, Human plasma sIL-6R; test: plasma potency ELISA, human plasma, normal IL-6 (EC50)
Cyno plasma sIL-6R [10] = biological target: T1, Cyno plasma sIL-6R; test: plasma potency ELISA, human against cyno plasma
Human plasma sIL-6R [11] = biological target: T3, Human plasma sIL-6R; test: plasma potency assay, human plasma, 2.4 nM IL6; blocked ligand IL-6
Protocol: as §1

[12] = biological target: T2, Human membrane IL-6R on cells; test: cell-based or functional assay; remark: listed apart in the source
[13] = biological target: T2, Human membrane IL-6R on cells; test: cell-based or functional assay; remark: listed apart in the source

B1: Reference IgG (antibody, V domains shown)
VH: QVQLQESGPGLVRPSQTLSLTCTVSGYSITSDHAWSWVRQPPGRGLEWIGYISYSGITTYNPSLKSRVTMLRDTSKNQFSLRLSSVTAADTAVYYCARSLARTTAMDYWGQGSLVTVSS
VL: DIQMTQSPSSLSASVGDRVTITCRASQDISSYLNWYQQKPGKAPKLLIYYTSRLHSGVPSRFSGSGSGTDFTFTISSLQPEDIATYYCQQGNTLPYTFGQGTKVEIKR
notes: Full-length human IgG1 produced in CHO cells
Q: How did the IC50 (Cyno plasma sIL-6R [1]) turn out when B1 was run?
A: 166 pM

Q: And the “IC50 (nM), TF-1 proliferation at 5000 IU/mL IL-6” value [2]?
A: 144 nM

Q: What about the IC50 (Human plasma sIL-6R [3]) of the same binder?
A: 258 pM

Q: And the “Ratio (high/low) of IC50” value (Human plasma sIL-6R [4])?
A: 6.54

Q: What about the IC50 (Human plasma sIL-6R [5]) of the same binder?
A: 1700 pM

Q: What about the “IC50 (read off the curve)” value (Human plasma sIL-6R [6]) of the same binder?
A: ~40 pM

Q: What about the “IC50 (read off the curve)” value (Cyno plasma sIL-6R [7]) of the same binder?
A: ~10 pM

Q: What about the IC50 (Human plasma sIL-6R [8]) of the same binder?
A: 1690 pM

Q: What about the IC50 (Human plasma sIL-6R [9]) of the same binder?
A: 258 pM

Q: And the “Ratio (human/cyno) of IC50” value (Cyno plasma sIL-6R [10])?
A: 1.55

Q: What about the IC50 (Human plasma sIL-6R [11]) of the same binder?
A: 200 pM

Q: And the “IC50 (nM) + HSA, XG-1 proliferation assay” value [12]?
A: 0.47 nM

Q: And the “IC50 (nM), TF-1 proliferation at 100 IU/mL IL-6” value [13]?
A: 0.921 nM
